Where only a bound is given, the exact number is not on record here.

Experiment [1] has as its target Human CD38 (human) (UniProt P28907). The experiment can be described thus: flow cytometry, QuantiBRITE system, LP1 cells. In general terms: A flow cytometer gives signals particle by particle.
For experiment [2] the target is unchanged. Kind of experiment: flow cytometry, QuantiBRITE system, NCI-H929 cells.
For experiment [3] the target is unchanged. Kind of experiment: flow cytometry, QuantiBRITE system, RPMI8226 cells.

Chain of UniProt P28907 (P28907 whole entry): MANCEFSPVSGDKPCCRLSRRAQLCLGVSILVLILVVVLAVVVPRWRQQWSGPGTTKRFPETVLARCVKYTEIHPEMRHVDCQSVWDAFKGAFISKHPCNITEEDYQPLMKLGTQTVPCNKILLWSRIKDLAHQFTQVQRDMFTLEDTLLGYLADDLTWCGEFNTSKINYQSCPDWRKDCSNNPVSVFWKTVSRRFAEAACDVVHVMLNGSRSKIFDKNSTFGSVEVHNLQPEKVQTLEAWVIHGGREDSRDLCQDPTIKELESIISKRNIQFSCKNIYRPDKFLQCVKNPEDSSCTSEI

Consider “QuantiBRITE CD38-PE antibody (Becton Dickinson GmbH, Clone HB7, CAT #342371)”, for which the Antibodies Bound Per Cell (ABC) (antibodies bound per cell) with Human CD38 (human) [1] was 125000; with Human CD38 (human) [2], 195000; in the experiment with Human CD38 (human) [3] it was above 677000.
